The record followed here is patent US20170166644A1 (SORRENTO THERAPEUTICS, published 2017).

Experiment [1] addresses T1, VEGFR2.
T1 construct: also called KDR
Briefly: EC50 measurement, summary table; assay not stated.
T1 sequence (P35968 20-764): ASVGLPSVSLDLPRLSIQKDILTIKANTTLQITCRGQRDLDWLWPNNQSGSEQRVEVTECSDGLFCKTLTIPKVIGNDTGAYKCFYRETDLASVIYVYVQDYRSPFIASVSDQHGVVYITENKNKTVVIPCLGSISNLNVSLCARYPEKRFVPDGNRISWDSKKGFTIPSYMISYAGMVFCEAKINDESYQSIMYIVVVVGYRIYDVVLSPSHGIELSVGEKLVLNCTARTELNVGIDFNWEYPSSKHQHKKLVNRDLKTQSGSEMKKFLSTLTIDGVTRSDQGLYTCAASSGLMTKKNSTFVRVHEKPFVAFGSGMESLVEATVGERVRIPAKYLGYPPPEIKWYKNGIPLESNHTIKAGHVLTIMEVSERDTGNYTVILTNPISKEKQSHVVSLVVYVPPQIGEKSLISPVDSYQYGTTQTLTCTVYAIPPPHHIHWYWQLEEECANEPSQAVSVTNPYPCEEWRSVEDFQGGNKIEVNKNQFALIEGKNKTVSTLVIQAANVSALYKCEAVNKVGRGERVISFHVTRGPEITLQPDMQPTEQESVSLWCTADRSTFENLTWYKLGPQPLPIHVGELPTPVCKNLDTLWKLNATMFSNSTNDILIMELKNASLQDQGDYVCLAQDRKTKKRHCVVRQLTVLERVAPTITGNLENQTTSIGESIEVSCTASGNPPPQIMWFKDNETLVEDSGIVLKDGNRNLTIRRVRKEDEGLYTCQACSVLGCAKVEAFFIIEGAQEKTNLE

Experiment [2] addresses T1, VEGFR2. Briefly: Biacore.
Experiment [3] has as its target T1, VEGFR2. Briefly: IC50 measurement, summary table; assay not stated.
Experiment [4] addresses T2, VEGFR2 on HUVECs (human, UniProt P35968 20-1356).
T2 construct: whole, on cells; also called VEGFR2 receptor in HUVECs; HUVE cells
The experiment is described as follows: flow cytometry on HUVECs, MFI against antibody concentration, non-linear fit (Example 6); unit taken from the axis label 'Antibody Conc (M)', log scale. The protocol: (§1) This example illustrates in vitro data for VK-B8 cellular EC₅₀ measurements. Protocol: 50,000 HUVECs were aliquoted into the wells of a 96-well, v-bottom plate in 100 ul FACS Buffer (PBS+2% FBS). A twelve point, 3× dilution curve of VK-B8 was made in FACS Buffer starting at 50 μg/ml (3.33×10⁻⁷ M). Cells were spun down, washed 1× with FACS Buffer, and then resuspended in 25 μl of antibody solution in triplicate. […] Cells were further incubated for 0.5 hr. and then washed 1× with FACS Buffer. Cells were resuspended in 25 μl FACS Buffer and the median fluorescence intensity in the FL2-H channel was determined using the Intellicyt HTFC flow cytometer.
(§2) Results: The cell binding EC₅₀ for VK-B8 on HUVECs was determined to be 1.3 nM. Data was analyzed and plotted in Graph Pad Prizm using non-linear regression fit. Data points are shown (FIG. 4) as the median fluorescence intensity (MFI) of positively labeled cells +/− Std Error.

The target of experiment [5] is soluble VEGFR2-Fc. The experiment is described as follows: blocking of VEGF binding to soluble VEGFR2-Fc (FIG. 2).
Sequence of soluble VEGFR2-Fc (P35968 20-764): as above
The target of experiment [6] is T2, VEGFR2 on HUVECs. Briefly: cell-based or functional assay.
Experiment [7] deals with soluble VEGFR2-Fc. The experiment is described as follows: blocking of VEGF binding to soluble VEGFR2-Fc, VK-B8 titrated, readout OD 450; plate format not described; unit taken from the axis label 'VK-B8 [log M]'.
Experiment [8] deals with T2, VEGFR2 on HUVECs. Briefly: cell binding to HUVE cells, flow cytometry (FIG. 3 legend); FIG. 3 legend, unrounded value. The protocol: as §1, §2

Where a chain is given by its changes, count along the chain named.

T2 sequence (P35968 20-1356): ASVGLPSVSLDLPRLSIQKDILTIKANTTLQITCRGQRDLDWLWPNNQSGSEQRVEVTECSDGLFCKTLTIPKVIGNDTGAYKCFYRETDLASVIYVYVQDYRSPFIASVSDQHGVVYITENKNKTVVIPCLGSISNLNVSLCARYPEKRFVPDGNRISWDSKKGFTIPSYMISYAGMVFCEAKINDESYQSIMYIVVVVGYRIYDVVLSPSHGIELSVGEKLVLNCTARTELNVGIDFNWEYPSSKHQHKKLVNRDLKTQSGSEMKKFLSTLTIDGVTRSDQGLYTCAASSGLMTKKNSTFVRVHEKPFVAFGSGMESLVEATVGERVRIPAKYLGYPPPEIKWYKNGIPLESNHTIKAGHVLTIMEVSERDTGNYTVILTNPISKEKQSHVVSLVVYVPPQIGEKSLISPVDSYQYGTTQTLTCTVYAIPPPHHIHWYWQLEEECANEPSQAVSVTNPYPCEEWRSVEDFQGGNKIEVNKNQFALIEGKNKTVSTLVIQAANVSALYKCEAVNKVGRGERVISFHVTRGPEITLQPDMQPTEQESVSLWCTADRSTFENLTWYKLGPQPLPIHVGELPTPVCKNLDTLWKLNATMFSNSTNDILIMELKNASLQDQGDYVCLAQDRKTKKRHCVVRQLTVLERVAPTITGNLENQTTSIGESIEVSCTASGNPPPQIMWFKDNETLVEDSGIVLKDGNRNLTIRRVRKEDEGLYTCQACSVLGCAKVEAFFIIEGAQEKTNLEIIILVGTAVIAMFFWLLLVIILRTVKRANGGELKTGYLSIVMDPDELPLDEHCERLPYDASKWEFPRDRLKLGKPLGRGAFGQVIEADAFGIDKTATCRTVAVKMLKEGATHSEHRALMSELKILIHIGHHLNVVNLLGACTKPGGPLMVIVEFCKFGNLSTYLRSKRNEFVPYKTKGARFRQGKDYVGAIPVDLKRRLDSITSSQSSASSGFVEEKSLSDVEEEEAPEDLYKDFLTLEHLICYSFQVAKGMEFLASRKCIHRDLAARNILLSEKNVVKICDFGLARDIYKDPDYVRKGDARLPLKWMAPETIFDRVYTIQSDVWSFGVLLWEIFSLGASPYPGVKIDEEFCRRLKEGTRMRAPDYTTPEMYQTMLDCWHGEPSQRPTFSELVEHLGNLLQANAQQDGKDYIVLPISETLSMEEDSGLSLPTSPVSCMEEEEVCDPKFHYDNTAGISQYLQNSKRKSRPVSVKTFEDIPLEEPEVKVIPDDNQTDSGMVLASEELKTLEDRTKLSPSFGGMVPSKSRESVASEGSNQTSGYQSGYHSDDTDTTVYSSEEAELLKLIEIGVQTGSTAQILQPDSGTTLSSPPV

B1: VB-E1 (antibody, V domains shown)
VH: QVQLVESGAEVKKPGASVKVSCKASGYTFTNYYIHWVRQAPGQGLEWMGIINPSSGSTNYAQKFQGRVTMTRDTSTSTVYMELSSLRSEDTAVYYCARQRWDLLDDAFDIWGQGTMVTVSS
VL: DIVMTQSPDSLAVSLGERATINCKTSQSVLYNANNKNYLNWYQQKPGQPPKLLIYWASARESGVPDRFSGSGSGTDFTLTIRSLQPDDFATYYCQQAISFPLTFGGGTKVEIK
Take B1: a half-maximal response in the experiment with VEGFR2 [1] (EC50) required 0.5 nM.

B2: RV-H5 (antibody, V domains shown)
VH: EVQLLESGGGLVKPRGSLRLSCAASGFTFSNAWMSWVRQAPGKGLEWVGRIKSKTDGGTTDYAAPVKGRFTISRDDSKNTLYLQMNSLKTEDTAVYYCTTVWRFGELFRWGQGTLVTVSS
VL: QAGLTQPPSVSVSPGQTASITCSGDKLGDKYISWYQQKPGQSPVMVIFQDTKRPSGIPERFSGSNSGNTATLTISGTQAMDEADYYCQAWDTSTVFGGGTKLTVL
In the case of B2, the 50% effective concentration (EC50) with VEGFR2 [1] stood at 0.323 nM. For the same molecule, in the experiment with VEGFR2 [2], binding was characterised by a dissociation constant (Kd) of 0.815 nM, the koff stood at 0.00225 s⁻¹ and the kon came to 2.76e+06 M⁻¹ s⁻¹. In the experiment with VEGFR2 [3], this molecule displayed an IC50 of 5.79 nM.

B3: VB-A9 (antibody, V domains shown)
VH: EVQLVESGGGLVKPGGSLRLSCAASGFTFSSYSMNWVRQAPGKGLEWVSSISSGSSYIYYADSLKGRFTISRDNAKNSLYLQMNSLRAEDTAVYYCARDFGNWGQGTLVTVSS
VL: QSALTQPRSVSASPGQSVTISCTGTSSDVGGYDYVSWYQQHPGKAPKLMIYEVSNRPSGVSNRFSGSKSGNTASLSISGLQAEDEADYYCSSYTSTSSPVVFGGGTKLTVL
In the case of B3, the EC50 in the experiment with VEGFR2 [1] came out at 0.25 nM. In the experiment with VEGFR2 [2], this molecule returned a Kd of 3.02 nM, a koff of 0.000496 s⁻¹ and a kon of 164000 M⁻¹ s⁻¹. This molecule also came in with an IC50 with VEGFR2 [3] of 2.05 nM.

B4: VR-B2 (antibody, V domains shown)
VH: EVQLLESGGGLVQPGGSLRLSCAASGFTFSSYAMHWVRQAPGKGLEWVAVISYDGSNKYYADSVKGRFTISRDNSKNTLYLQMNSLRAEDTAVYYCARDLGAASYWYFDLWGRGTLVTVSS
VL: DIQLTQSPPSVSASVGDRVTITCRASQDISTWLAWYQQKPGSAPKVLIYAASTFQSGVPSRFRGSGSGTYFTLTISGLQPEDFATYYCQQGNSFPPTFGQGTKLEIK
For the molecule B4, a half-maximal effect with VEGFR2 [1] (EC50) was put at 0.747 nM.

B5: VR-E3 (antibody, V domains shown)
VH: EVQLVESGGGLVKPGGSLRLSCAASGFTFSSYSMNWVRQAPGKGLEWVSSISSASSYIYYADSVKGRFTISRDNAKKSLYLQLNSLTVEDTAVYYCAREYWGSPDYWGRGTLVTVSS
VL: QPVLTQPPSASGSPGQSVTISCTGTSSDVGGYNYVSWYQQHPGKAPKLMIYDVNNRPSGVPDRFSGSKSGNTASLTISGLQAEDEADYYCSSYTSSSTRVFGGGTKLTVL
B5 registered an EC50 in the experiment with VEGFR2 [1] of 1.29 nM. In the experiment with VEGFR2 [3], the IC50 was 9.32 nM.

B6: VB-A3 (antibody, V domains shown)
VH: QVQLVQSGAEVKKPGASVKVSCKASGHTFNYYYMHWVRQAPGQGLEWMGQTNLNSGGTNYAPKFQGRVTMTRDTSISTAYMELSSLRSDDTAVYYCANLNSGWFHFENWGQGTLVTVSS
VL: SYELTQPPSVSVAPGKTASITCGGNNIGSKSVHWYQQKPGQAPVLVIYYDRDRPSGIPERFSGSNSGNTATLTISRVEAGDEADYYCQVWDSSSYHPVFGGGTKLTVL
In the experiment with VEGFR2 [2], B6 had a Kd of 3.09 nM, a koff of 0.012 s⁻¹ and a kon of 3.88e+06 M⁻¹ s⁻¹.

B7: VK-B8 (antibody, V domains shown)
VH: QVQLVQSGAEVKKPGSSVKVSCKAYGGTFGSYGVSWVRRAPGQGLEWMGRLIPIFGTRDYAQKFQGRVTLTADESTNTAYMELSSLRSEDTAVYYCARDGDYYGSGSYYGMDVWGQGTLVTVSS
VL: ETTLTQSPATLSVSPGERATVSCRASQSLGSNLGWFQQKPGQAPRLLIYGASTRATGIPARFSGSGSGTEFTLTISSLQSEDFAVYFCQQYNDWPITFGQGTRLEIK
notes: The printed VH starts with MA; also called STI-A0168; anti-VEGFR2 antibody VK-B8
As to B7, the midpoint of the response with VEGFR2 on HUVECs [4], the EC50, lay at 1.3 nM. The molecule further showed an IC50 with soluble VEGFR2-Fc [5] of around 0.77 nM. In addition, a half-maximal response in the experiment with VEGFR2 [1] (EC50) required 0.25 nM. Moreover, in the experiment with VEGFR2 on HUVECs [6], the “IC50 for VK-B8 inhibition of VEGF-induced p44/p42 MAPK (Erk1/2) phosphorylation in HUVECs, phospho-ELISA” value was 0.08 nM; the “IC50 value for the inhibition of VEGF-induced HUVEC cell migration by VK-B8 (FIG. 14 legend)” value is 0.53 nM; the “IC50 value for the inhibition of VEGF-induced HUVEC cell proliferation by VK-B8 (FIG. 13 legend)” value was determined as 14.9 nM; the “IC50 value for the inhibition of VEGF-induced HUVEC migration by VK-B8 (modified Boyden chamber)” value amounted to 0.5 nM. Also, the “IC50 value for the inhibition of VEGF-induced HUVEC proliferation by VK-B8” value with VEGFR2 on HUVECs [6] was 14 nM. In the experiment with soluble VEGFR2-Fc [7], this molecule had an IC50 of 0.771 nM. Further, in the experiment with VEGFR2 [2], binding was put at a Kd of 0.121 nM, the koff is 8.73e-05 s⁻¹ and the kon was 724000 M⁻¹ s⁻¹. This molecule also gave an EC50 with VEGFR2 on HUVECs [8] of around 1.3 nM. The molecule also showed an IC50 with VEGFR2 [3] of 2.04 nM.

B8: VR-B4 (antibody, V domains shown)
VH: B7 VH with L119T
VL: SYELTQPASVSGSPGQSITISCTGSSSDVGGYNFVSWYRQHAGKAPKLMIYDVTNRPSGVSTRFSGSKSGTTASLTISGLQPDDEAHYYCSSYTTTSTWVFGGGTKLTVL
With B8, in the experiment with VEGFR2 [1], a half-maximal response (EC50) required 24.3 nM.
